Molecular target: human MCU-EMRE fusion protein (hME) (human)

MICU1EF (MICU1 with D231A, E242K, D421A, E432K), N-terminally MBP-tagged (from UniProt Q9BPX6 34-476) (natural protein)
time constant of the decay of hME Ca2+ current on perfusion of 10 μM MICU1EF: 44 s
